# B1: CPEB3 Ribozyme (parent)
# chain: GGGGGCCACAGCAGAAGCGUUCACGUCGCGGCCCCUGUCAGAUUCUGGUGAAUCUGCGAAUUCUGCUGU
# Variants of: B1
# Assay: self-cleavage, relative activity (ratio to wild type); higher = more cleavage; co-transcriptional
row,Variant,self-cleavage
1,G5C C29U,0.133
2,G5C C32G,0.968
3,G5C C33A,0.302
4,G5C C33G,0.227
5,G5C C34A,0.268
6,G5C C34G,0.22
7,G5C C34U,0.3
8,G5C C35A,0.0866
9,G5C C39A,0.134
10,G5C C39G,0.199
11,G5C C39U,0.184
12,G5C C45G,0.178
13,G5C C45U,0.266
14,G5C C54G,0.143
15,G5C C54U,0.219
16,G5C C57A,0.0507
17,G5C C57G,0.098
18,G5C C63A,0.119
19,G5C C63G,0.109
20,G5C C63U,0.207
21,G5C C66U,0.151
22,G5C G11U,0.108
23,G5C G14U,0.109
24,G5C G17A,0.0588

row,Variant,self-cleavage
1,G5C G17C,0.0976
2,G5C G19A,0.126
3,G5C G19U,0.121
4,G5C G25C,0.0981
5,G5C G25U,0.0626
6,G5C G28C,0.0894
7,G5C G28U,0.0856
8,G5C G30A,0.177
9,G5C G30C,0.124
10,G5C G30U,0.0983
11,G5C G31U,0.143
12,G5C G37A,0.119
13,G5C G37C,0.103
14,G5C G37U,0.179
15,G5C G41A,0.194
16,G5C G41C,0.188
17,G5C G41U,0.186
18,G5C G47A,0.201
19,G5C G47C,0.246
20,G5C G47U,0.289
21,G5C G48A,0.217
22,G5C G50A,0.202
23,G5C G50C,0.182
24,G5C G56A,0.158

row,Variant,self-cleavage
1,G5C G58U,0.207
2,G5C G65A,0.158
3,G5C G65C,0.106
4,G5C G65U,0.0855
5,G5C G68A,0.473
6,G5C G68C,0.317
7,G5C G68U,0.483
8,G5C U20G,0.0813
9,G5C U21A,0.134
10,G5C U21C,0.149
11,G5C U21G,0.114
12,G5C U26A,0.156
13,G5C U26G,0.228
14,G5C U36A,0.0886
15,G5C U36C,0.244
16,G5C U36G,0.458
17,G5C U38G,0.0921
18,G5C U43C,0.173
19,G5C U43G,0.219
20,G5C U44C,0.179
21,G5C U46A,0.265
22,G5C U46C,0.267
23,G5C U55A,0.192
24,G5C U61A,0.193

row,Variant,self-cleavage
1,G5C U61C,0.13
2,G5C U61G,0.153
3,G5C U62A,0.169
4,G5C U64A,0.246
5,G5C U64C,0.262
6,G5C U64G,0.105
7,G5C U67A,0.338
8,G5C U67C,0.254
9,G5C U67G,0.355
10,G5C U69A,0.307
11,G5C U69G,0.437
12,G5U A8C,0.346
13,G5U A8G,0.228
14,G5U A10C,0.604
15,G5U A10G,0.543
16,G5U A10U,0.581
17,G5U A13G,0.271
18,G5U A13U,0.139
19,G5U A16G,0.14
20,G5U A16U,0.127
21,G5U A23C,0.211
22,G5U A23G,0.253
23,G5U A23U,0.402
24,G5U A40C,0.088

row,Variant,self-cleavage
1,G5U A42C,0.0793
2,G5U A42G,0.343
3,G5U A42U,0.118
4,G5U A51C,0.187
5,G5U A51G,0.198
6,G5U A51U,0.236
7,G5U A52G,0.266
8,G5U A52U,0.232
9,G5U A59U,0.125
10,G5U A60C,0.0763
11,G5U A60G,0.0935
12,G5U A60U,0.149
13,G5U C6U,0.111
14,G5U C7A,0.086
15,G5U C7G,0.0615
16,G5U C7U,0.0819
17,G5U C9A,0.716
18,G5U C9U,0.877
19,G5U C12U,0.188
20,G5U C18A,0.0315
21,G5U C18G,0.0898
22,G5U C22G,0.09
23,G5U C24G,0.0967
24,G5U C24U,0.0968

row,Variant,self-cleavage
1,G5U C27G,0.0619
2,G5U C27U,0.032
3,G5U C29A,0.0808
4,G5U C29G,0.0724
5,G5U C32A,0.953
6,G5U C32G,0.815
7,G5U C32U,0.568
8,G5U C34A,0.0978
9,G5U C34G,0.0508
10,G5U C35G,0.08
11,G5U C39U,0.101
12,G5U C45A,0.208
13,G5U C45U,0.291
14,G5U C54U,0.231
15,G5U C57A,0.11
16,G5U C63A,0.114
17,G5U C63G,0.0897
18,G5U C63U,0.24
19,G5U C66A,0.19
20,G5U C66G,0.133
21,G5U C66U,0.299
22,G5U G11U,0.098
23,G5U G14A,0.078
24,G5U G14U,0.0546

row,Variant,self-cleavage
1,G5U G17A,0.082
2,G5U G17C,0.0663
3,G5U G17U,0.0412
4,G5U G19C,0.0535
5,G5U G19U,0.0974
6,G5U G25A,0.0881
7,G5U G25C,0.0917
8,G5U G25U,0.0766
9,G5U G28A,0.046
10,G5U G28C,0.0876
11,G5U G28U,0.0687
12,G5U G30C,0.08
13,G5U G30U,0.0993
14,G5U G31A,0.132
15,G5U G31C,0.0656
16,G5U G37C,0.119
17,G5U G37U,0.0584
18,G5U G41C,0.113
19,G5U G41U,0.0869
20,G5U G47A,0.294
21,G5U G47C,0.277
22,G5U G47U,0.296
23,G5U G48C,0.327

# Reference: the RNAGym collection of RNA variant scans (doi:10.7554/elife.80360)
